Data: patent US11028174 (LEPU BIOPHARMA, dated 2021)

Experiments:
[1] = biological target: PD-L1 on PD-L1 target cells (Homo sapiens (Human)) (UniProt Q9NZQ7); assay: cell-based or functional assay
[2] = biological target: recombinant human TGF-β (human) (UniProt P01137); assay: cell-based or functional assay
rat PD-L1 protein = rat PD-L1 protein (rat, UniProt D4AE25 19-239); assay: ELISA, coated rat PD-L1
Experimental: (§1) ELISA testing was carried out to evaluate the binding of chimeric antibodies to human PD-L1, mouse PD-L1, rat PD-L1, and cynomolgus PD-L1, respectively.
(§2) Briefly, microtiter plates were coated with human, mouse, rat and cynomolgus PD-L1 proteins at 0.5 µg/ml in PBS, 100 µl/well at 4° C. overnight, then blocked with 150 µl/well of 1% BSA. Three-fold dilutions of chimeric antibodies starting from 10 µg/ml were added to each well and incubated for 1 hour at 37° C. The plates were washed with PBS/Tween and then incubate with mouse-anti-human IgG Fab antibody conjugated with Horse Radish Peroxidase (HRP) for 30 mins at 37° C. After washing, the plates were developed with TMB substrate and analyzed by spectrophotometer at OD 450 nm.

mouse PD-L1 protein = mouse PD-L1 protein (mouse, UniProt Q9EP73 19-239, limits assumed); assay: ELISA, coated mouse PD-L1
mouse PD-L1 protein, sequence (Q9EP73 19-239 limits assumed): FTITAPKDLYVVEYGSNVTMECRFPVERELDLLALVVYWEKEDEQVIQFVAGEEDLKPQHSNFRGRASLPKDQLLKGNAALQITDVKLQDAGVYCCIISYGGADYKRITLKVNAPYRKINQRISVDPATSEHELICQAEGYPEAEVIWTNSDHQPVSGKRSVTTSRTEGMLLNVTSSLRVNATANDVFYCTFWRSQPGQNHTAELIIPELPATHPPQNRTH
Experimental: as §1, §2

rat PD-L1 protein, sequence (D4AE25 entry or part of it limits assumed): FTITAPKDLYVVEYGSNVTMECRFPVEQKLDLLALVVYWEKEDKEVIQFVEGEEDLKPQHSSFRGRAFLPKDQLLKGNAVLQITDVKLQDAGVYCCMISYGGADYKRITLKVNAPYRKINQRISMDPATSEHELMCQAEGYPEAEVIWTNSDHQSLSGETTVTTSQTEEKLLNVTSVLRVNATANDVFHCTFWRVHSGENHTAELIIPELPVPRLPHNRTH
PD-L1 on PD-L1 target cells (Homo sapiens (Human)), sequence (Q9NZQ7 19-290 limits assumed): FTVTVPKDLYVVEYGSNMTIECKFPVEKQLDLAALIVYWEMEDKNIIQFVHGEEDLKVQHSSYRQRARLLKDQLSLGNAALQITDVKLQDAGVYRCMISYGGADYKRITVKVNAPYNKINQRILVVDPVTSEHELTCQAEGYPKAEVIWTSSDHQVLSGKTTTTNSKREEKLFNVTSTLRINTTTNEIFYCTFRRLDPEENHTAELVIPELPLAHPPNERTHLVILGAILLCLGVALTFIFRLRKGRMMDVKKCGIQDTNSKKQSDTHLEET
recombinant human TGF-β (human), sequence (P01137 279-390 limits assumed): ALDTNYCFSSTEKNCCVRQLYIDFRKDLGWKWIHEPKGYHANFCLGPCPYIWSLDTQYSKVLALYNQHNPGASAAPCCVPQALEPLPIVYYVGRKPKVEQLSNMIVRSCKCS

NFAT-RE-mediated luminescence, PD1 effector cells co-cultured with PD-L1 target cells [1] [nM] | TGF-β SMAD luciferase reporter assay in transfected 293 cells [2] [nM] | Molecule | binding result (rat PD-L1 protein) | binding result (mouse PD-L1 protein)
0.85 | 0.0669 | M7824 (bintrafusp alfa) |  | 
 |  | 89C10H8 chimeric mAb (antibody, V domains shown, also called 89C10H8-chimera) VH: EVQLVESGGGLVQPGRSLTLSCVASGFTFSNYWMTWIRQAPGKGLEWVASITNTGSSTFYPDSVKGRFTISRDNTRSTLFLQINSLRSEDTATYYCTRDTTIAPFDYWGQGVMVTVSS VL: DIQMTQSPSFLSASVGDRVTITCKASQNLNEYLNWYQQKLGEAPKRLIYKTNTLQAGIPSRFSGSGSGIDYTLTISSLQPEDVATYFCSQYNSGNTFGAGTKLELK | no binding (tested: starting from 10 µg/ml) | no binding (tested: starting from 10 µg/ml)
 |  | 47C6A3 chimeric mAb (antibody, V domains shown, also called 47C6A3-chimera) VH: DVQLQESGPGLVKPSQSLSLTCTVTGYSITSDYAWNWIRQFPGNKLEWMGYIIYSGSTSYNPSLKSRISITRDTSKNQFFLQLNSVTTEDTATYYCARSTMIATNWFAYWGQGTLVTVSA VL: DIVMTQSHKFMSTSVVDRVSITCKASQDVSLAVAWYQQKPGQSPKLLIYWASTRHTGVPDRFTGSGSGTDFALTISSVQAEDLALYYCQQHYITPWTFGGGTKLEIK | no binding (tested: starting from 10 µg/ml) | no binding (tested: starting from 10 µg/ml)
 |  | 67F3G7 chimeric mAb (antibody, V domains shown, also called 67F3G7-chimera) VH: QVKLLQSGAALVKPGASVKMSCKASGYIFTDFWVSWVKQSHEKSLEWIGEIYPNSGVSRYNEKFKGRATMTVDKSTSTAYLELSRLTSEDSAIYYCTKYFGYTYWFGYWGQGTLVTVSS VL: DTVLTQSPALAVSLGQRITISCRASKSVSTYMHWYQQRSGLQPKLLIYSASHLESGVPSRFSGSGSGTDFTLTIDPVEADDIANYYCQQSNELPVTFGSGTKLEIK | no binding (tested: starting from 10 µg/ml) | no binding (tested: starting from 10 µg/ml)
